# Reference: patent US20230053449A1, “DC-SIGN ANTIBODY DRUG CONJUGATES” (NOVARTIS AG, priority 2018, published 2023)
# Key:
# [1] = target: T1, cynomolgus monkey DC-SIGN, full length, stably expressed on CHO cells (cynomolgus monkey, UniProt Q95J96 1-403 (rhesus entry)); assay: flow cytometry, CHO cells expressing cyno DC-SIGN
# T1 construct: also called cyno DC-SIGN CHO
# T1 sequence: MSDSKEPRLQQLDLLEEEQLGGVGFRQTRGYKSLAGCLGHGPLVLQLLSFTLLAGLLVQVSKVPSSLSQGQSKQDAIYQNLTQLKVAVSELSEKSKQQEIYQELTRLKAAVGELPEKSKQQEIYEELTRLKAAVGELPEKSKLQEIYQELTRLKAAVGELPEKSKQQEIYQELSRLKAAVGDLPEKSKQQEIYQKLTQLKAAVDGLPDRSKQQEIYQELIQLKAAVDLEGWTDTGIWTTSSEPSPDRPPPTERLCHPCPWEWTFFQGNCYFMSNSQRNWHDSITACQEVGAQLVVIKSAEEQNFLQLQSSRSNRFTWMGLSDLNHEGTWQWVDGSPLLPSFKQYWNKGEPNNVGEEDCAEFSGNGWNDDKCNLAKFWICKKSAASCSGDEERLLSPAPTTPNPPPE
# Protocol: (§1) The affinity of various antibodies and ADCs to DC-SIGN and its species orthologues was determined using FACS. Purified IgGs were titrated to determine EC50 values for binding to cell surface expressed DC-SIGN.
# (§2) For this purpose, human DC-SIGN expressing or cynomolgus monkey DC-SIGN expressing stable CHO cell lines or K562 expressing DC-SIGN or K562 expressing L-SIGN cell lines were checked for density and viability using VICELL (Beckman Coulter), and washed once with 4° C. PBS. Cells were stained with DAPI (0.5 ug/mL) diluted in PBS for 30 min on ice. Cells were diluted into 4° C. FACS buffer (PBS, 10 mM EDTA, 2% FBS). 125 μl of cells were seeded (10,000 cells/well) into 96-well v-bottom plates (Nunc cat #442587) and centrifuged for 4 min at 1500 rpm at 4° C. Supernatant was removed. […] Following incubation, cells were spun down (1500 rpm, 4 min, 4° C.) and washed two times with FACS buffer. A fluorophore-conjugated anti-hFc gamma-AF-647 (Southern Biotechnology) detection antibody was added at 1:400 dilution and samples were incubated for 1 h on ice in the dark.
# [2] = target: T2, human DC-SIGN, full length, stably expressed on CHO or K562 cells (human, UniProt Q9NNX6 1-404); assay: flow cytometry, CHO cells expressing human DC-SIGN
# T2 construct: Also the native/transgenic human DC-SIGN on moDCs, macrophages and Tg+ mouse dendritic cells in the functional entries; also called human DC-SIGN CHO; human DC-SIGN K562
# T2 sequence: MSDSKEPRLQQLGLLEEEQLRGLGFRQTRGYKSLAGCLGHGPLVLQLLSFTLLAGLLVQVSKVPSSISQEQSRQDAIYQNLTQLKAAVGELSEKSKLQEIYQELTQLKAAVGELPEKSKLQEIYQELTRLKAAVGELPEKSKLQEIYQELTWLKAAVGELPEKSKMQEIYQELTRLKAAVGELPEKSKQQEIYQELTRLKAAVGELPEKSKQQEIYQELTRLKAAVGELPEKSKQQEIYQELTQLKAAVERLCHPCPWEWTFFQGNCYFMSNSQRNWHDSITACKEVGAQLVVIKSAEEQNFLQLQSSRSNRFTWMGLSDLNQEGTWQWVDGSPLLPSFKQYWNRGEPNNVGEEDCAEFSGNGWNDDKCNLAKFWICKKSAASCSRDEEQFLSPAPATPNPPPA
# Protocol: as §1, §2
# [3] = target: T2, human DC-SIGN, full length, stably …; assay: flow cytometry, K562 cells expressing human DC-SIGN
# Protocol: as §1, §2
# [4] = Aggregation by analytical size-exclusion chromatography (AnSEC); format: physicochemical; details: conjugate with linker-payload C-5
# Protocol: Conjugates were profiled using analytical size-exclusion chromatography (AnSEC) on Zenix C-300 3 um 7.8×150 mm column (Sepax Technologies). Alternatively, samples were tested on a KW-803 column (TIC Cat #6960940) Aggregation was analyzed based on analytical size exclusion chromatography and reported as the % monomer based on AUC of the assigned monomer peak.
# The sample shown below in Table 20 achieved >90% conjugation efficiency and >95% purity as assessed by AnSEC. This illustrates that conjugates of the invention can be made efficiently and have favorable characteristics.
# L-SIGN = target: T3, L-SIGN (Homo sapiens, UniProt Q9H2X3); assay: FACS binding to L-SIGN expressing K562 cells
# T3 construct: expressed in transfected cells; host or cells: K562 (retroviral transduction)
# T3 sequence (Q9H2X3 1-399): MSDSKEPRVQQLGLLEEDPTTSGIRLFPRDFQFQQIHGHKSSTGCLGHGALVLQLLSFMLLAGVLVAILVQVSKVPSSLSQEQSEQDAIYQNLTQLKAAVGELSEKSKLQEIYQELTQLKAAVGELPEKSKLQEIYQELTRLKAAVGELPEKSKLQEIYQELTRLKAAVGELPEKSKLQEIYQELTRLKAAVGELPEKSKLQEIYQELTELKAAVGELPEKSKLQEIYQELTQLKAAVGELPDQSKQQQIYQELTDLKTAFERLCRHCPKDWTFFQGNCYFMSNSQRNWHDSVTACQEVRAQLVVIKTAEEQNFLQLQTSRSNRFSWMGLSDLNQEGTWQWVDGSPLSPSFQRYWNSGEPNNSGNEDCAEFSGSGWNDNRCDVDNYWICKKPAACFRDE
# Protocol: as §1
# For this purpose, human DC-SIGN expressing or cynomolgus monkey DC-SIGN expressing stable CHO cell lines or K562 expressing DC-SIGN or K562 expressing L-SIGN cell lines were checked for density and viability using VICELL (Beckman Coulter), and washed once with 4° C. PBS. Cells were stained with DAPI (0.5 ug/mL) diluted in PBS for 30 min on ice. Cells were diluted into 4° C. FACS buffer (PBS, 10 mM EDTA, 2% FBS). 125 μl of cells were seeded (10,000 cells/well) into 96-well v-bottom plates (Nunc cat #442587) and centrifuged for 4 min at 1500 rpm at 4° C. Supernatant was removed. […] After the final wash, cells were resuspended in Fixative Buffer (Biolegend, 420801) and 90 μl of FACS buffer followed by readout on the flow cytometry machine (BD LSRFortessa Cell Analyzer; Cat #647177). Geometric Mean fluorescence intensity (MFI) of live, single cells was calculated in Flowjo 10.4.2 and exported into Graphpad Prism7 for EC50 determination.
# Selectivity was assessed by measuring apparent binding affinities to isogenic cell pairs engineered to overexpress DC-SIGN as well as cell lines expressing DC-SIGN paralog L-SIGN.
molecule,measurement,setting,value
"1G12 Parental (antibody, V domains shown) VH: QVQLQQSGPGLVQPSQSLSITCTVSGFSLTNYGVHWVRQSPGKGLEWLGVIWRGESTDYNAAFMSRLSVTKDDSKSQVFFKMNSLQADDTAIYYCARNGGSSGWYFDVWGTGTTVTVSS VL: DIQMTQTHKFMSTSVGDRVSITCKASQDVTSAVAWYQQTPGQSPNLLIYWTSTRHTGVPDRFTGSGSGTDYTLTISSVQAEDLALYYCQQHYTTPLTFGAGTKLELK",EC50,[1],0.07 µg/mL
same,EC50,[2],0.06 µg/mL
same,EC50,[3],0.02 µg/mL
2B2 Chimeric (antibody) heavy: EVQLQQSGAELVRPGSSVKMSCKTSGYTFTNYGINWVKQRPGQGLEWIGYIYIGNDYTEYNERFKGKATLTSDTSSSTAHIQLNSLTSEDSAIYFCARLYYGSSLYSYAMDYWGQGTSVTVSSASTKGPSVFPLAPSSKSTSGGTAALGCLVKDYFPCPVTVSWNSGALTSGVHTFPAVLQSSGLYSLSSVVTVPSSSLGTQTYICNVNHKPSNTKVDKRVEPKSCDKTHTCPPCPAPELLGGPSVFLFPPKPKDTLMISRTPEVTCVVVAVSHEDPEVKFNWYVDGVEVHNAKTKPREEQYNSTYRVVSVLTVLHQDWLNGKEYKCKVSNKALAAPIEKTISKAKGQPREPQVYTLPPSREEMTKNQVSLTCLVKGFYPCDIAVEWESNGQPENNYKTTPPVLDSDGSFFLYSKLTVDKSRWQQGNVFSCSVMHEALHNHYTQKSLSLSPGK light: DIVMTQAAPSVSVTPGESVSISCRSSKSLLHSSGNTYLYWFLQRPGQSPQLLISRMSNLASGVPDRFSGSGSGTAFTLRISRVEAEDVGVYYCMQHLEYPYTFGGGTKLELKRTVAAPSVFIFPPSDEQLKSGTASVVCLLNNFYPREAKVQWKVDNALQSGNSQESVTEQDSKDSTYSLSSTLTLSKADYEKHKVYACEVTHQGLSSPVTKSFNRGEC,% Monomer,[4]; after preparative SEC,99%
same,% Monomer,[4]; before preparative SEC,95.4%
2B2 Hz: Humanization of Antibodies 2B2 and 1G12: variable region constructs were designed for humanization and optimization of sequences (antibody) heavy: QVQLVQSGAEVKKPGASVKVSCKASGYTFTNYGINWVRQAPGQRLEWMGYIYIGNDYTEYNERFKGRVTITSDTSASTAYMELSSLRSEDTAVYYCARLYYGSSLYSYAMDYWGQGTTVTVSSASTKGPSVFPLAPSSKSTSGGTAALGCLVKDYFPCPVTVSWNSGALTSGVHTFPAVLQSSGLYSLSSVVTVPSSSLGTQTYICNVNHKPSNTKVDKRVEPKSCDKTHTCPPCPAPELLGGPSVFLFPPKPKDTLMISRTPEVTCVVVAVSHEDPEVKFNWYVDGVEVHNAKTKPREEQYNSTYRVVSVLTVLHQDWLNGKEYKCKVSNKALAAPIEKTISKAKGQPREPQVYTLPPSREEMTKNQVSLTCLVKGFYPCDIAVEWESNGQPENNYKTTPPVLDSDGSFFLYSKLTVDKSRWQQGNVFSCSVMHEALHNHYTQKSLSLSPGK light: DIVMTQSPLSLPVTPGEPASISCRSSKSLLHSSGNTYLYWFLQKPGQSPQLLISRMSNLASGVPDRFSGSGSGTDFTLKISRVEAEDVGVYYCMQHLEYPYTFGGGTKVEIKRTVAAPSVFIFPPSDEQLKSGTASVVCLLNNFYPREAKVQWKVDNALQSGNSQESVTEQDSKDSTYSLSSTLTLSKADYEKHKVYACEVTHQGLSSPVTKSFNRGEC,human L-SIGN K562 EC50,L-SIGN,>10 µg/mL
